# Test results taken from patent publication US7794719 (dated 2010).
# Substitutions are numbered along the chain they refer to.
# B1: MS-R 7.9.H7 IgG1 (antibody, V domains shown)
# VH: QVELVESGGGLVQPGGSLRLSCAASGFTFSSYAMSWVRQAPGKGLEWVSAINASGTRTYYADSVKGRFTISRDNSKNTLYLQMNSLRAEDTAVYYCARGKGNTHKPYGYVRYFDVWGQGTLVTVSS
# VL: DIVLTQSPATLSLSPGERATLSCRASQSVSSSYLAWYQQKPGQAPRLLIYGASSRATGVPARFSGSGSGTDFTLTISSLEPEDFATYYCLQIYNMPITFGQGTKVEIKR
# B2: MS-R 3.6.H5 x 3.6.L2 IgG1 (antibody, V domains shown)
# VH: QLVESGGGLVQPGGSLRLSCAASGFTFSSYAMSWVRQAPGKGLEWVSAISESGKTKYYADSVKGRFTISRDNSKNTLYLQMNSLRAEDTAVYYCARLTHYARYYRYFDVWGQGTLVTVSS
# VL: B1 VL with S28F, V29L, S31R, S32Y, T86V, L90Q, I92T, M95Y, I97P
# B3: MS-R 7.4.H2 x 7.2.L1 IgG1 (antibody, V domains shown)
# VH: QLVESGGGLVQPGGSLRLSCAASGFTFSSYAMSWVRQAPGKGLEWVSAINYNGARIYYADSVKGRFTISRDNSKNTLYLQMNSLRAEDTAVYYCARGKGNTHKPYGYVRYFDVWGQGTLVTVSS
# VL: B1 VL with S28Y, S30D, S31R, S32T, L90Q, N94S, M95F, I97H
# B4: MS-R 7.11.H1 x 7.2.L1 IgG1 (antibody, V domains shown)
# VH: B3 VH with A48G, Y51A, N52A, A54F, I56T
# VL: B1 VL with S28Y, S30D, S31R, S32T, L90Q, N94S, M95F, I97H
# B5: MS-R 7.9.H2 IgG1 (antibody, V domains shown)
# VH: B3 VH with Y51A, N52D, A54N, I56K
# VL: B1 VL
# B6: MS-R 7.11.H1 x 7.11.L1 IgG1 (antibody, V domains shown)
# VH: B3 VH with A48G, Y51A, N52A, A54F, I56T
# VL: B1 VL with S28R, V29I, S30L, S31R, S32I, L90Q, I92V, N94S, M95P, I97H
# B7: MS-R 8.2L1 Fab (antibody, V domains shown)
# VH: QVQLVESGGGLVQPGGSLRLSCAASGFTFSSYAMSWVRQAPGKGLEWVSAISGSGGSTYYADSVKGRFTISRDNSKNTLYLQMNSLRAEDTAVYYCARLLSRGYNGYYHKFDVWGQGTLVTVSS
# VL: B1 VL with S28R, S31G, S32R, L90Q, I92L, Y93S, N94S, M95Y, I97P
# B8: MS-R 7 Fab (antibody, V domains shown)
# VH: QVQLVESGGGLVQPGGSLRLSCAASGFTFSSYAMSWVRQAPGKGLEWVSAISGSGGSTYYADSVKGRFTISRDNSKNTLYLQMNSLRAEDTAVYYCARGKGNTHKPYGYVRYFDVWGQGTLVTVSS
# VL: B1 VL with L90F, I92L, N94S, M95D, I97F
# B9: MS-R 7.9H2 Fab (antibody, V domains shown)
# VH: B3 VH with Y51A, N52D, A54N, I56K
# VL: B1 VL
# B10: MS-R 7.2L1 Fab (antibody, V domains shown)
# VH: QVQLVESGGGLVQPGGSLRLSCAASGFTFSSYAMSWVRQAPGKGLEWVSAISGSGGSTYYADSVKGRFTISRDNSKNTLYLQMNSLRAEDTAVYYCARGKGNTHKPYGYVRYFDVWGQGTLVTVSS
# VL: B1 VL with S28Y, S30D, S31R, S32T, L90Q, N94S, M95F, I97H
# B11: MS-R 7.9 Fab (antibody, V domains shown)
# VH: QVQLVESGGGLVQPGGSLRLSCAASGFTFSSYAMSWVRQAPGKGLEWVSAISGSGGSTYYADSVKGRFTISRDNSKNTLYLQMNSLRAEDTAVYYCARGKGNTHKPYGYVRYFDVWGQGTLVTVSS
# VL: B1 VL
# B12: MS-R 7.9H4 Fab (antibody, V domains shown)
# VH: B3 VH with Y51A, N52V, A54M, R55K, I56K, Y57F
# VL: B1 VL
# B13: MS-R 3.4L7 Fab (antibody, V domains shown)
# VH: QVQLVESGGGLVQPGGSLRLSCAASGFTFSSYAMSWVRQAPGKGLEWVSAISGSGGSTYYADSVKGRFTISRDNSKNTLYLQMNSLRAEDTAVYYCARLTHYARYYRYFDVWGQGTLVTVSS
# VL: B1 VL with S28R, V29L, S30G, S31R, S32L, L90Q, I92T, N94D, M95Y, I97P
# B14: MS-R 7.9H7 Fab (antibody, V domains shown)
# VH: B1 VH with E3Q
# VL: B1 VL
# B15: MS-R 7.11L1 Fab (antibody, V domains shown)
# VH: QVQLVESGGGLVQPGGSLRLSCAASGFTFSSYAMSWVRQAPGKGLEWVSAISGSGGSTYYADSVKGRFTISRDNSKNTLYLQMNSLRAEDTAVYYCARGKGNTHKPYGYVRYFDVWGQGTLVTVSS
# VL: B1 VL with S28R, V29I, S30L, S31R, S32I, L90Q, I92V, N94S, M95P, I97H
# B16: MS-R 3.4L9 Fab (antibody, V domains shown)
# VH: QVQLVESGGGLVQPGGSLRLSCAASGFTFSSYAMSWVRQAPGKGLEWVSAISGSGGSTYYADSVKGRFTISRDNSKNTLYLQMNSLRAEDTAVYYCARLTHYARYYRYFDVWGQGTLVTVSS
# VL: DIVLTQSPATLSLSPGERATLSCRASRRIHVYYLAWYQQKPGQAPRLLIYGASSRATGVPARFSGSGSGTDFTLTISSLEPEDFATYYCQQTYDYPPTFGQGTKVEIKR
# B17: MS-R 3.6L2 Fab (antibody, V domains shown)
# VH: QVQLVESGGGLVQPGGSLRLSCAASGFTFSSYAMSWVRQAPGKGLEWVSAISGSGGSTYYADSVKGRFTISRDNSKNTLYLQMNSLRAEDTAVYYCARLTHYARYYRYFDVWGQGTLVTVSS
# VL: B16 VL with R27Q, R28F, I29L, H30S, V31R, T86V, D94N
# B18: MS-R 3.6L1 Fab (antibody, V domains shown)
# VH: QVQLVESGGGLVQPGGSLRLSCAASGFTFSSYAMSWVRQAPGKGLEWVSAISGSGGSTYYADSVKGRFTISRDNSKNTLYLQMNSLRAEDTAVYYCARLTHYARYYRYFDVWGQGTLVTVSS
# VL: B16 VL with R27Q, R28F, H30Q, V31R, Y32F, T86V, D94N
# B19: MS-R 7.11H1 x 7.11L1 Fab (antibody, V domains shown)
# VH: B3 VH with A48G, Y51A, N52A, A54F, I56T
# VL: B16 VL with R27Q, H30L, V31R, Y32I, T92V, D94S, Y95P, P97H
# B20: MS-R 3.4H3 x 3.4L7 Fab (antibody, V domains shown)
# VH: B2 VH with A48V, E51Q, S52T, K54R, T55K, K56I
# VL: B16 VL with R27Q, I29L, H30G, V31R, Y32L
# B21: MS-R 3.4H7 x 3.4L9 Fab (antibody, V domains shown)
# VH: B2 VH with A48V, S52T, T55N, K56I
# VL: B16 VL
# B22: MS-R 8.1H1 x 8.2L1 Fab (antibody, V domains shown)
# VH: QLVESGGGLVQPGGSLRLSCAASGFTFSSYAMSWVRQAPGKGLEWVSAISRSGSNIYYADSVKGRFTISRDNSKNTLYLQMNSLRAEDTAVYYCARLLSRGYNGYYHKFDVWGQGTLVTVSS
# VL: B16 VL with R27Q, I29V, H30S, V31G, Y32R, T92L, Y93S, D94S
# B23: MS-R 7.11H1 x 7.2L1 Fab (antibody, V domains shown)
# VH: B3 VH with A48G, Y51A, N52A, A54F, I56T
# VL: B1 VL with S28Y, S30D, S31R, S32T, L90Q, N94S, M95F, I97H
# B24: MS-R 7.4H2 x 7.2L1 Fab (antibody, V domains shown)
# VH: B3 VH
# VL: B1 VL with S28Y, S30D, S31R, S32T, L90Q, N94S, M95F, I97H
# B25: MS-R 7.2H2 x 7.2L1 Fab (antibody, V domains shown)
# VH: B3 VH with Y51G, N52T, A54M, R55K, I56K
# VL: B1 VL with S28Y, S30D, S31R, S32T, L90Q, N94S, M95F, I97H
# B26: MS-R 3.4H7 x 3.4L7 Fab (antibody, V domains shown)
# VH: B2 VH with A48V, S52T, T55N, K56I
# VL: B16 VL with R27Q, I29L, H30G, V31R, Y32L
# B27: MS-R 7.11H2 x 7.2L1(L1) Fab (antibody, V domains shown)
# VH: B3 VH with Y51A, A54Y, R55K, I56K
# VL: B1 VL with S28Y, S30D, S31R, S32T, L90Q, N94S, M95F, I97H
# B28: MS-R 7.9H2 x 7.2L1(L1) Fab (antibody, V domains shown)
# VH: B3 VH with Y51A, N52D, A54N, I56K
# VL: B1 VL with S28Y, S30D, S31R, S32T, L90Q, N94S, M95F, I97H
# B29: MS-R 7.9H2 x 7.12L2(L1+2) Fab (antibody, V domains shown)
# VH: B3 VH with Y51A, N52D, A54N, I56K
# VL: DIVLTQSPATLSLSPGERATLSCRASQRFFYKYLAWYQQKPGQAPRLLISGSSNRATGVPARFSGSGSGTDFTLTISSLEPEDFAVYYCLQLYNIPNTFGQGTKVEIKR
# B30: MS-R 3.6.H8 x 3.6.L2 IgG1 (antibody, V domains shown)
# VH: B2 VH with S52Y, G53S, T55F
# VL: B16 VL with R27Q, R28F, I29L, H30S, V31R, T86V, D94N
# Molecular target: Aβ1-40 fibers (human)
# Test: SPR
row,Kd [nM],Binder
1,0.69,B1
2,1.03,B2
3,0.63,B3
4,0.66,B4
5,0.42,B5
6,0.7,B6

# Molecular target: Aβ1-40 fibers (human)
# Test: SPR
# Remark: another data set of the same source
row,Kd [nM],Binder
1,4.8,B7
2,1100,B8
3,5,B9
4,13.3,B10
5,31,B11
6,4.8,B12
7,9.3,B13
8,1,B14
9,1.1,B15
10,16.3,B16
11,13.7,B17
12,15.6,B18

# Molecular target: Aβ1-42 fibers (human)
# Test: SPR
row,Kd [nM],Binder
1,0.24,B1
2,0.2,B2
3,0.12,B3
4,0.15,B4
5,0.11,B5
6,0.13,B6

# Molecular target: Aβ1-42 fibers (human)
# Test: SPR
# Remark: another data set of the same source
row,Kd [nM],Binder
1,3.7,B7
2,1710,B8
3,5.7,B9
4,12.7,B10
5,93,B11
6,4.2,B12
7,9.3,B13
8,0.9,B14
9,1.2,B15
10,9.1,B16
11,13.1,B17
12,11.1,B18

# Molecular target: Aβ1-40 fibers (human)
# Test: SPR
# Remark: another data set of the same source
row,Kd [nM],Binder
1,0.25,B1
2,0.2,B2
3,0.12,B3
4,0.14,B4
5,0.12,B5
6,0.11,B6

# Molecular target: Aβ1-40 fibers (human)
# Test: SPR
# Remark: another data set of the same source
row,Kd [nM],Binder
1,0.41,B19
2,0.92,B20
3,2.66,B21
4,1.3,B22
5,1.75,B23
6,1.4,B24
7,1.29,B25
8,1.19,B26
9,1,B27
10,1.4,B28
11,0.4,B29

# Molecular target: Aβ1-42 fibers (human)
# Test: SPR
# Remark: another data set of the same source
row,Kd [nM],Binder
1,0.7,B1
2,0.95,B2
3,0.56,B3
4,0.67,B4
5,0.38,B5
6,0.7,B6

# Molecular target: Aβ1-42 fibers (human)
# Test: SPR
# Remark: another data set of the same source
row,Kd [nM],Binder
1,0.47,B19
2,0.92,B20
3,3.51,B21
4,1.6,B22
5,1.39,B23
6,1.4,B24
7,1.43,B25
8,1.23,B26
9,0.6,B27
10,1.4,B28
11,0.4,B29

# Molecular target: Aβ1-42 fibers (human)
# Test: SPR, bivalent
row,Kd [nM],Binder
1,0.22,B30

# Molecular target: Aβ1-40 fibers (human)
# Test: SPR, bivalent
row,Kd [nM],Binder
1,0.22,B30

# Molecular target: Aβ1-40 fibers (human)
# Test: SPR, monovalent
row,Kd [nM],Binder
1,0.95,B30

# Molecular target: Aβ1-42 fibers (human)
# Test: SPR, monovalent
row,Kd [nM],Binder
1,0.82,B30
